From the RNAGym collection of RNA variant scans (doi:10.7554/elife.90254)

B1: OR4K15 (parent)
chain: GUUAACGGUCAUAGGCCAUGGAAACUAGGAGCACCAUUUCGCUGCCAGUGAAGAAAUGAACAAAGAAAAUCUGGGCCAGGCAGGCAUCAAAAGAAAUAGUCUUGCGCUCAACCAGAAAGUCUGUAAUCAUUUUAAGGGUA

Variants of: B1
Assay: self-cleavage, relative activity (ratio to wild type); higher = more cleavage; in vitro, sequencing; the parent is a self-cleaving ribozyme

In order of rising self-cleavage:
1. GUUAACGGUCAUAGGCCAUGGAAACUAGGAGCACCAUUUCGCUGCCAGUGAAGAAAUGAACAAAGAAAAUCUGGGCCAGGCAGGCAUCAAAAGAAAUAGUCUUGCGCCCAACCAGAAAGUUUGUAAUCAUUUUAAGGGUA  0.02
2. GUUAACGGUCAUAGGCAAUGGAAACUAGGAGCACCAUUUCGCUGCCAGUGAAGAAAUGAACAAAGAAAAUCUAGGCCAGGCAGGCAUCAAAAGAAAUAGUCUUGCGCUCAACCAGAAAGUCUGUAAUCAUUUUAAGGGUA  0.16
3. GUUAACGGUCAUAGGCCAUGGAGACUAGGAGCACCAUUUCGCUGCCAGUGAAGAAAUGAACAAAGAAAAUCCGGGCCAGGCAGGCAUCAAAAGAAAUAGUCUUGCGCUCAACCAGAAAGUCUGUAAUCAUUUUAAGGGUA  0.3
4. GUUAACGGUCAUAGGCCAUGGAAACUAGGAGCACCAUUUCGCUGCCAGUGAAGAAAUGAACAAAGAAAAUCCGGGCCAGGCAGGCAUCAAAAGAAAUAGUCUUGCGCUCAACCAGAAAGUCUGUAAUCAUUCUAAGGGUA  0.3
5. GUUAACGGUCGUAGGCCAUGGAAACUAGGAGCACCAUUUCGCUGCCAGUGAAGAAAUGAACAAAGAACAUCUGGGCCAGGCAGGCAUCAAAAGAAAUAGUCUUGCGCUCAACCAGAAAGUCUGUAAUCAUUUUAAGGGUA  0.39
6. GUUAAUGGUCAUAGGCCAUGGAAACAAGGAGCACCAUUUCGCUGCCAGUGAAGAAAUGAACAAAGAAAAUCUGGGCCAGGCAGGCAUCAAAAGAAAUAGUCUUGCGCUCAACCAGAAAGUCUGUAAUCAUUUUAAGGGUA  0.53
7. GAUAACGGUCAUAGGCCAUGGAAACUAGGAGCACCAUUUCGCUGCCAGUGAAGAAAUGAACAAAGAAAAUCUGGGCCAGGCAGGCAUCAAAAGAAAUAGUCUUGCGCUCAACCAGAAAGUCCGUAAUCAUUUUAAGGGUA  0.72
8. GUUAACGGUCAUAGGCCAUGGAAACUAGGAGCGCCAUUUCGCUGCCAGUGAAGAAAUGAACAAAGAAAAUCUGGGCCAGGCAGGCAUCAAAAGAAAUAGUCUUGCGCUCAACCAGAUAGUCUGUAAUCAUUUUAAGGGUA  0.74
9. GUUAACGGUCAUAGGCCACGGAAACUAGGAGCACCAUUUCGCUGCCAGUGAAGAAAUGAACAAAGAAAAUCUGGGCCAGGCAGGCAUCAAAAGAAAUAGUCUUGCGCUCAACCAGAAAGUCUGCAAUCAUUUUAAGGGUA  0.87
10. GUUAACGGUCAUAGGCCAUGGAAACUAGGAGCACCAUUUCGCUGCCAGUGAAGAAAUGAACAAAGAAAAUCUGGGCCAGGCAGGCAUCAAUAGAAAUAGUCUUGCGCUCAACCAGAAAGUCUGUAAUCGUUUUAAGGGUA  1.13
11. GUUAACGGUCAUAGGCCAUGGAAACUAGGAGCACCAUUUCGCUGCCAGUGAAGAAAUGAACAAAGAAAAUCUGGGCCAGGCAGGCAUCAAAAGAAGUAGUCUUGCGCUCAACCAGAAAGCCUGUAAUCAUUUUAAGGGUA  1.14
12. GUUAACGGUCAUAGGCCGUGGAAACUAGGAGCACCAUUUCGCUGCCAGUGAAGAAAUGAACAAAGAAAAUCUGGGCCAGGCAGGCAUCAAAAGAAAUAGUCUUGCGCUCAACCAGAAAGUCUGUAAUCAUUUUAAGGGUA  1.16
13. GUUAACGGUCAUAGGCCAUGGAAACUAGGAGCACCAUUUCGCUGCCAGUGAAGAAAUGAACAAAGAAAAUCUGGGCCAGGCAGGCAUCAAAGGAAAUAGUCUUGCGCUCAACCAGAAAGUCCGUAAUCAUUUUAAGGGUA  1.19
14. GUUAACGGUCAUAGGCCAUGGAAACUAGGAGCACCAUUUCGCUGCCAGUGAAGAAAUGAACAAAGAGAAUCUGGGCCAGGCAGGCAUCCAAAGAAAUAGUCUUGCGCUCAACCAGAAAGUCUGUAAUCAUUUUAAGGGUA  1.63
15. GUUAACGGUCAUAGGCCAUGGAAACUAGGAGCACCAUUUCGCUGCCAGUGCAGAAAUGAACAAAGAAAAUCUGGGCCAGGCAGGCAUCAAAAGAGAUAGUCUUGCGCUCAACCAGAAAGUCUGUAAUCAUUUUAAGGGUA  1.65
16. GUUAACGGUCAUAGGCCAUGGAAACUAGGAGCACCAUUUCGCUGCCAGUGAAGAAAUGAACAAAGAAAAUCUGGGCCAGGCAGGCAACAAAAGAAAUAGUCUUGCGCUCAACCAGAAAGUCUGUAAUCAUUUUAAGGGUA  1.65
17. GUUAACGGUCAUAGGCCAUGGAACCUAGGAGCACCAUUUCGCUGCCAGUGAAGAAAUGAACAAAGAAAAUCUGGGCCAGGCAGGCAUCAAAAGAAAUAGUCUUGCGCUCAACCAGAAAGUCUGUAAUCAUUUAAAGGGUA  1.76
18. GUUAACGGUCAUAGGCCAUGGAAACUAGGAGCACCACUUCGCUGCCAGUGAAGAAAUGAACAAAGAAAAUCUGGGCCAGGCAGGCAUCAAAAGAAUUAGUCUUGCGCUCAACCAGAAAGUCUGUAAUCAUUUUAAGGGUA  1.84
19. GUUAACGGUCAUAGGCCAUGGAAACUAGGAGCACCAUUUCGCUGCCAGUGAAGAAAUGAACAAAGAAAAUCUGGGCCAGGCAGGCAUCAAAAGAAAUAGUCUUGCGCUCAACCAGAAAGUCUGUAUUCAUUUUAAGGGAA  1.99
20. GUUAACGGUCAUAGGCCAUGGAAACUAGGAGCACCAUUUCUCUGCCAGUGAAGAAAUGAACAAAGAAAAUCUGGGCCAGGCAGGCAUCGAAAGAAAUAGUCUUGCGCUCAACCAGAAAGUCUGUAAUCAUUUUAAGGGUA  2.13
21. GUUAACGGUCAUAGGCCAUGGAAACUAGGAGCACCAUUUCGCUGCCAGUGAAGAAAUGAACAAUGAAGAUCUGGGCCAGGCAGGCAUCAAAAGAAAUAGUCUUGCGCUCAACCAGAAAGUCUGUAAUCAUUUUAAGGGUA  2.16
